Experimental findings from the DeepSol protein solubility set are described below.

The data set is described as follows: soluble on expression in E. coli; label from the status in PepcDB or PDB records.
Consider “MRNIIFTGKGGVGKTSVAAATALKAADMGYKTLIMSTDPAHSLGDSLDIELGPSPVKVAENLWGQEVSVFGDLNLNWDVVREHFAHLMASRGIEGVYAEEMGVLPGMEELFSLSYIKRYNEEQKDFDLLVVDCAPTGETLRLLSLPETFGWFIKMIRNIEKYMVKPVIRPLSKKVKKLDDFVAPEEVYEKVDNLFSSTEGIIDLLADGTKTTMRLVMNPEKMVIKESMRALTYLNLYGITVDRITINRVMPDQSPDPYFQQWRNIQQKYIDQINSAFAPIPVAEVPLFNNEVVGLEMLRKVGEKVYGDENPLDIF”, for which the “soluble on expression in E. coli” value was “not soluble”.
With “MSQFTHYPPVSDKQLGFFIDSSRCSGCKACQVACKDKNNLEVGRRFRRVYEVKGGSFIPTGQGGVSNNVFAYTLSISCNHCADPVCTKNCPTTAMHKRPGDGIVRVDTDKCVGCGYCAWSCPYGAPQLNEQTGQMSKCDMCVDLLAKGEPPVCVATCPLEAIKFGPIDELRAKYGSVCDVNGLPDSSITKPNLVVKAHQGAEKEGKRHA”, the “soluble on expression in E. coli” value is on record as “not soluble”.
In the case of “MGSDKIHHHHHHMQDYYSTLIGWMIPISRAMEAHQIDLTTALKECNISQDVMTDQESRIAAEKFYNLIEYCNKKLGRHDFSILIAEQFHPGMFHALGYAMMSSNTLQDALDRIAHYKRVVSNTCQLVTYESNNQLVFEMNIFTYEGTNRPVLSLATVETFLATIIRFARELVTLDFSPEKICFAYQKPAHDVTYLEEFFNCDIEFNSDKNAIIFNFEQAQEKLMCGNPLITHSHEKMLDEFMARIDKNDLSHVIKNKIFDLLPLGAPSQIVIAEDLGMSLRNLQRKLQEQGTSYKEILESTRKKLAMDYIVQQHLSLSEIGYLVGFSSVGNFNRAFKRWTNQTPGEYRQSKKT” it was “not soluble”; in that of “MGSDKIHHHHHHMSDAMHTLLTASPLLDLHHPEIEALVARRDWLTLSPYDRIGAVYDFVRNEIAFGYNEGDELPASRVLADGIGQCNTKSTLLMALLRAVGIPCRFHGFTIDKPLQKGAITGLAYWLAPQRIIHSWVEVSLEGRWIALEGFILDAPYLASLQRRFPQARRFCGYGAATPDLSAPGVDWRGQDAYIQKEGIADDFGVFDSPDAFYARHGSNLSGVKRWLYERVIRHRMNRNVARVRASKW”, “not soluble”.
In the case of “MSLATICSLCNKKISIFKMRLKFKDGVVGQSCLSELNLCNFWAFEPGAKEYAESHTIADLKELQTSGKDFTNIQDQYIDDETKKELQKKQEKKQERQEKIEVLKEFKDDGATKFSSYYFDLKKNQILSSGSLTTSWRVIDFSEVLSYQVNRNGHLEQKHHGIARAVTGGIMAGGVGAIVGTTTGENTDYIDHLGLVINLSDGTNFEVKFLKTKTKTNSFTVKTAEGELRSLISIVQSGMNKAQEKAEQEQTKANTIKIESNADPAEEIRKFKKMADEGIISNEEFEAKKKQLLNLQEGHHHHHH” it was “not soluble”; in that of “MSQDNLSAVLYGVDDLRLEQVPIPKPGPNQVLVKVHTVGICGSDVHYWTHGAIGPFVVKEPMIVGHETSGIVSEVGNEVKHLKVGDRIAMEPGLPCKLCEHCKTGRYNLCPEMRFFATPPVHGTLSRFVVHDADFCFKLPDNLSFEDGALIEPLSVAIHACRRGNVQMGHRVLVLGAGPIGVLNLITAKAVGAGKVVITDLDDGRLALAKKLGADATINVKGKSLDAVKSEIITALGDQQPDVCIECTGAQPSIETAITTTKSGGVIVLVGLGADRVEIPIIESATREVDMRGIFRYVNCYPTAIELISSGKLNLSGLTRAHYKLEETQEAFKRTQKADVIKVFIQC”, “not soluble”; in that of “MSLRISTNQIYQRGLDNLLTQQERLARLQDQQASGIRVRTPSDDPVASAQIELIKQRINNIELFQNNRQAADSALRLEEGILSNAVNSLHRLREIQIQAGNPSLSEEDRKTLAVEAQALLNQLLDYANTKDSNGSYMFSGSKSLTQPVSLNLSGQYVYNGDSTQRFQAVTTSLLVAVNDTGDNVFMRIPSGNGRFAIRETLTPNTGTASVSSGSVTNEAAFVPDNYTMTFALNSQGNLVVMVSGTLSGNVIPPSGLPDDAPLYQEGSAIGFNGMEMVVSGLPKAGDSFSISPAKNESIFSTVQRMINNLNKPYTSSVEKAATQTENNQLLAQIDSALGHILSVQSDLGARLNQLETAEKANNDYLDISAATLKKLREIDEGHHHHHH”, “soluble”.
For the sequence “MSRVKLGHHYYYIVTPQDLRDGKYKGKNIVIEGEIKDKPIIEFLPMELPSYRTIFRVSGFKVEFSGTPNVRMGEKVKVYGVFVGDGIIARAIETEGAIYITEE”, the “soluble on expression in E. coli” value is “soluble”.
In the case of “MKKWVCTVCGYIYDEDAGDPDNGISPGTKFEELPDDWVCPLCGVGKDQFEKLED” it was “soluble”; in that of “MGSDKIHHHHHHMPIDEWLVLNRIGIFENPSLRRYVSPFPPPELMGITSGLQSETGFAAHGADIYAALALASTIPITEYRHILDFGCGCGRLARMLKGHPHKISGCDIDLRHVKWIGQSLDFMNVKLSSVRPPIPFADDEMDAVISVSIFTHLTENSQDDFLAELFRVTRPGGTLFLTVHGAQALKRACHEQPIRHMLDMDEGRFRKAQQAFNQNKHGFVLQFGHLTTKPEKAFYTPRAIFRRIRDSFSRKTINMPFEYGIAFHPESYIREHWSKWFDILDYRHGAIHQFQDIVVLSPKK”, “not soluble”.
In the case of “MLWRKRLFAHLYPGLSARHEALVAERKRALFREALRRARPERVLEIGPGPGTNLAHLPEGVAYLALEPNPFFHPRLREEARKRGLALTLLPGRAEAIPLPGGSVDLVVATLVLCSVADPEKAIEEVHRVLRPGGAYLFLEHVAAPKGAPLRLLQEAATPFFVFFGDGCHPNRKTLAQIQARFPRVEAEAFSLPLPVVAPHVAGLAFKELEHHHHHH” it was “not soluble”; in that of “MLKSASSLVRSFIRPQTFRLCSSSSTTQGSPSVSSDDEPVILENNPYTKEPRKSFLCSTGVELDYKNSRLLQQFVSTFSGRVYDRHITGLCDENKKKLIEAIAKSRRAGFMPIFVKDPKYTRDPKLFDPLKPIRPHSFA”, “not soluble”; in that of “GPLGSLGRRWGPNVQRLACIKKHLRSQGITMDELPLIGGCELDLACFFRLINEMGGMQQVTDLKKWNKLADMLRIPKTAQDRLAKLQEAYCQYLLSYDSLSPEEHRRLEKEVLMEKEILEK”, “soluble”.
“MPLSPYLSFAGNCADAIAYYQQTLGAELLYKLSFGEMPPSAADNEEGCPSGMRFPDTAIAHANMRIAGSDIMMSDASASGRAHYSGFTLVLDTQDVAEGKRWFDNLAAQGQIEMDWQETFWAQGFGKVSDRFGVPWMINVVKHQPAT”: the “soluble on expression in E. coli” value is given as “not soluble”.
Consider “MLLDFPHGQFGFTNSCIIAVIWLSLSPTLNRGQLNLDRFKFWLPTSQLLVLDVCLFDAFALEHHHHHH”, for which the “soluble on expression in E. coli” value is recorded as “not soluble”.
Under “MTEPLTETPELSAKYAWFFDLDGTLAEIKPHPDQVVVPDNILQGLQLLATASDGALALISGRSMVELDALAKPYRFPLAGVHGAERRDINGKTHIVHLPDAIARDISVQLHTVIAQYPGAELEAKGMAFALHYRQAPQHEDALMTLAQRITQIWPQMALQQGKCVVEIKPRGTSKGEAIAAFMQEAPFIGRTPVFLGDDLTDESGFAVVNRLGGMSVKIGTGATQASWRLAGVPDVWSWLEMITTALQQKRENNRSDDYESFSRSILEHHHHHH” stands “not soluble”.
In the case of “MHPKRTPGTCFPGRGRPAPPRISVTVPEEVSQQEDLLVARSSELGGNSNTAVALTFNHALTAVRFVCGNDMREGTVKQVRLKNVYSRGTYNMGTQTWSGLDTPASFSQALDKVTTGTADEALTSEAQTFMMLPQRFPEGAQIEVLFTDDTHTGHTLIADIKGSEWPMGKTVTYKISSSSLNWTYTLDVTALADFTYTGGTQQYCVTSYRQNAQGEKEAAEWTAQYAEDGTTWTDTKPVWLTAFTASGTGGEFAQPCDATVEAQTGISNDLHENALKAATAKGSETTPYNLSNNTGGNTVENTANCYVVNAPGYYSLPLVYGNAIKNSATNASAYTSTVTGTNILNPFINHAGNGITDPYISGNGCTPAKAELVWQDAMNLVTDIKYNADSNGGNISFKVDRSSIRQGNAVIAIKDVSDAILWSWHVWVTDEDINNVIEITNHQNVKYNFMPVNLGQCDGNTITYEERSCKVKFIAGDQSKEITIKQLANVIATGSNAPFYQWGRKDPLYPSNGMGNTTKIWYDKEGIPSTANPMKGTFSAGNDCIKNCILNPNLMHNRYNGDYTYYNLWSADNKTTSANDNPVNKTIYDPCPVGFKLPASNAFTGFTTTGESVSSSTQVNGTWSSSEKGWYFYTNSEKTQSIFFPALGYRSYSTMRPGSIGTQGCFWSAHPVAKGNNYYLRTSSVDVQPTYMVDRGFGYALRPCQD” it was “not soluble”; in that of “HPPMPDYTRSLESTLSFWASWVEELPHQRLYDAEVRRSMLVLRALTDLQTGGIVAAPTTSLPEDFGGIRNWDYRYVWLRDSALTIEALVEYGFSQAALQWRTWLLRAIAGDPENLRIMYGLGGERHLPERELQHLRGYENSVPVRVGNGAAEQYQADVVGEVMVALETIRRAGCLEDEFSWGMQKAILDFQEANFDRKDQGIWEMRSEPQYFTHGRAMMWAGFDRGIKAIEEFNLDGPIERWRELRAKLREEIMTNGFNEEIQSFTQCYDNTQVDASLLQLAQIGFIGFDDPKMLSTVARIEQELLDAHGFLHRYHTDGSDGLAGDEYPFLICSFWLVEQYASSNRLDEAKEKMNRILAVQSPLGLLAEEYSTHHGRLAGNYPQAFSHIGLISAARAINFEEARNR”, “not soluble”.
Under “MSSQVEHPAGGYKKLFETVEELSSPLTAHVTGRIPLWLTGSLLRCGPGLFEVGSEPFYHLFDGQALLHKFDFKEGHVTYHRRFIRTDAYVRAMTEKRIVITEFGTCAFPDPCKNIFSRFFSYFRGVEVTDNALVNIYPVGEDYYACTETNFITKVNPETLETIKQVDLCNYVSVNGATAHPHIENDGTVYNIGNCFGKNFSIAYNIVKIPPLQADKEDPISKSEIVVQFPCSDRFKPSYVHSFGLTPNYIVFVETPVKINLFKFLSSWSLWGANYMDCFESNETMGVWLHIADKKRKKYINNKYRTSPFNLFHHINTYEDHEFLIVDLCCWKGFEFVYNYSYLANLRENWEEVKKNARKAPQPEVRRYVLPLNIDKADTGKNLVTLPNTTATAILCSDETIWLEPEVLFSGPRQAFEFPQINYQKYGGKPYTYAYGLGLNHFVPDRLCKLNVKTKETWVWQEPDSYPSEPIFVSHPDALEEDDGVVLSVVVSPGAGQKPAYLLILNAKDLSEVARAEVEINIPVTFHGLFKKS” stands “soluble”.
For “MMGMAVSTKLSIDEVNMLEKEDFVTKIGPIFEHSPWVAERAWAHRPFTSAENMYECMLEKVYEADKRLQLALLRAHPDLGTRLEISETSQSEQQRAGLSQLTEEEFAVFAELNKCYVDTFRFPFIMAVRGQTKNSIKEQMRKRLVNDEEQERKTALREVAKIAKFRLADLVVMGSRSLEHHHHHH”, the “soluble on expression in E. coli” value is on record as “soluble”.
